For one substance, stoichiometry N results are on record in publication PMC8423902.

In the test the target is trimeric SARS-CoV-2 ectodomain (S 6P trimer, residues 16-1206) (SARS-CoV-2) (UniProt P0DTC2). Nature of the test: cryo-EM structure.

As a reminder, the stoichiometry N is the number of molecules, sites or subunits per partner or assembly.

“trimeric SARS-CoV-2 ectodomain (S 6P trimer, residues 16-1206) (from UniProt P0DTC2 16-1206)” had a stoichiometry N of 3.
